Assay [1] has as its target T1, human NPRB on HEK293 cells, without added ligand (human, UniProt P20594 23-1047).
T1 construct: whole, on cells; also called HEK NPRB cells; natriuretic peptide receptor B
T1 sequence (looked up): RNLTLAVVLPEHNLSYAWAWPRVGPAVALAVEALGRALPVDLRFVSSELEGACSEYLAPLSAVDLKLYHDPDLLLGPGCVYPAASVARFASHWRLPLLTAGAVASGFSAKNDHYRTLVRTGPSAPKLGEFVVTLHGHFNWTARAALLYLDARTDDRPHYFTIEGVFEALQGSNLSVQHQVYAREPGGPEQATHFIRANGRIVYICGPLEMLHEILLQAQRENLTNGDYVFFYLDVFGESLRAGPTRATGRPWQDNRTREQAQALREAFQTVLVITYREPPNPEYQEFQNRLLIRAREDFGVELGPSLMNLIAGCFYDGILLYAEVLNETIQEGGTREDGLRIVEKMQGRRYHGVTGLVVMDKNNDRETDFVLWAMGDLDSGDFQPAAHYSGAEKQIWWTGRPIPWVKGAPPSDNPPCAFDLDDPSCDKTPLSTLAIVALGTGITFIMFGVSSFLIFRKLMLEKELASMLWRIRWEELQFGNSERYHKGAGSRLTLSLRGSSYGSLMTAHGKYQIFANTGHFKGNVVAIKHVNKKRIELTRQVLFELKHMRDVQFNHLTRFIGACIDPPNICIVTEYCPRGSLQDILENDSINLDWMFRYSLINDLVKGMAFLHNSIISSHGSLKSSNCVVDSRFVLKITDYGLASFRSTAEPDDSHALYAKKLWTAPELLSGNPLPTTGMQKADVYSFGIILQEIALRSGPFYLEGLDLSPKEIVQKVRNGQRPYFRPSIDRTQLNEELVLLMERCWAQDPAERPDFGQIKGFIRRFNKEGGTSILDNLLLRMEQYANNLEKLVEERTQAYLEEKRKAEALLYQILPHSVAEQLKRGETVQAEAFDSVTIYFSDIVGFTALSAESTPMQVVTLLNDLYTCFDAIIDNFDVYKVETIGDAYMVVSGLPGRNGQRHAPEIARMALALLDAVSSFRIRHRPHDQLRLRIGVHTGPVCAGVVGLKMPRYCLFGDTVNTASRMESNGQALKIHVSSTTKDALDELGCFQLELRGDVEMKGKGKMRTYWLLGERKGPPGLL
The assay can be described thus: FACS, HEK NPRB cells without ligand.
Method: HEK NPRA cells are detached with Accutase (PAA Laboratories GmbH, Cat. No. L11-007, Austria), harvested by centrifugation (900 rpm, 4 minutes) and resuspended in FACS buffer (PBS/3% FCS/0.02% NaN3) to a final concentration of 10⁶ cells/ml. 100 μl of the cell suspension is transferred to each well of a 96 round bottom plate (TC Microwell 96U, Nunc). […] Cells are washed in 150 μl of FACS buffer, pelleted and resuspended in 50 μl of the solution containing the primary antibody comprising a BEL extract of Fabs, a diluted BEL extract or purified antibody diluted in FACS buffer and incubated on ice for 30 min. Cells are washed again in FACS buffer and resuspended in 50 μl of FACS buffer containing the secondary antibody (R-Phycoerythrin-conjugated Affipure F(ab′)₂ Fragment Goat Anti-Human IgG, Dianova) and incubated on ice for 45 min. Cells are washed twice with FACS buffer and resuspended in 200 μl of FACS buffer for analysis in the FACS Array (BD Biosciences).

The target of assay [2] is T2, human NPRA on HEK293 cells bound to ANP (human, UniProt P01160 124-151).
T2 construct: mature; Receptor-ligand complex on cells; also called HEK NPRA cells loaded with ANP; ANP-NPRA complex
T2 sequence: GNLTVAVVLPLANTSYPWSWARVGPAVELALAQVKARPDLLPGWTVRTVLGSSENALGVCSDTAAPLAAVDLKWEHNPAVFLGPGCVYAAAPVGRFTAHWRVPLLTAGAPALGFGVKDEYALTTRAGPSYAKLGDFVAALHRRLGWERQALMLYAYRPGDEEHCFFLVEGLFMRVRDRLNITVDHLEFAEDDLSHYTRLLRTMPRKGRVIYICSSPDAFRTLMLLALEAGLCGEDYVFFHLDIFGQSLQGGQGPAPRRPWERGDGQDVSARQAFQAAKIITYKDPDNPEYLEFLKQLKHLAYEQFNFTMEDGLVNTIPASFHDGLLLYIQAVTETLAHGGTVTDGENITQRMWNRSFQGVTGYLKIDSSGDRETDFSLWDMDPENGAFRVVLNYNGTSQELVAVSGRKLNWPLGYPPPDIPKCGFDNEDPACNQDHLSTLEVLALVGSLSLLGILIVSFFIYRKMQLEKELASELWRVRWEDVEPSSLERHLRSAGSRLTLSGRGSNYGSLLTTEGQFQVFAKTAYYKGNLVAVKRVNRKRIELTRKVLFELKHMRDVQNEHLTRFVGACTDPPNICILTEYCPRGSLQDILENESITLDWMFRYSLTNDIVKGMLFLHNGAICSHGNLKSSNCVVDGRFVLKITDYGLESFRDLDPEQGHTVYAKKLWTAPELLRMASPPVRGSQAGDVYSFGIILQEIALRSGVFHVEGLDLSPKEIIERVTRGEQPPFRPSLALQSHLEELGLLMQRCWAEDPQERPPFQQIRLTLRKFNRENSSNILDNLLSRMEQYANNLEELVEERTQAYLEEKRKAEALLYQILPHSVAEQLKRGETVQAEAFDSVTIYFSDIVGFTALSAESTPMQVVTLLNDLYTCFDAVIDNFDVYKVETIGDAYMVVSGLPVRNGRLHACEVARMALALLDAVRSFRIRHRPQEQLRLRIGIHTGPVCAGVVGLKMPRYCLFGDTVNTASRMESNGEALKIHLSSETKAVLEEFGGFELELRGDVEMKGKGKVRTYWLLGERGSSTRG
T2 sequence (peptide): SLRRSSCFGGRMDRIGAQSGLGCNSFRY
The assay can be described thus: KinExA whole cell binding, HEK NPRA cells with 1 nM ANP, against SPR on NPRA-Fc.

B1: 5502 IgG4_Pro (antibody, V domains shown)
VH: QVQLQQSGPGLVKPSQTLSLTCAISGDSVSSRSASWSWIRQSPGRGLEWLGRIYYRSKWYNDYAVSVKSRITINPDTSKNQFSLQLNSVTPEDTAVYYCARMDVPSFRYFDVWGQGTLVTVSS
VL: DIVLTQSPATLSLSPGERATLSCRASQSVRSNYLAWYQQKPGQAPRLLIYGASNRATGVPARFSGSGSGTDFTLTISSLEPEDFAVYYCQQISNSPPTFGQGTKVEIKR
notes: Human IgG4_Pro
Take B1: in assay [1], the binding result is “no binding (tested: 20 nM)”.

B2: 5591 IgG4_Pro (antibody, V domains shown)
VH: QVQLQQSGPGLVKPSQTLSLTCAISGDSVSSRSASWSWIRQSPGRGLEWLGRTYYRSHWYYEYAQSVKSRITINPDTSKNQFSLQLNSVTPEDTAVYYCARMDVPSFRYFDVWGQGTLVTVSS
VL: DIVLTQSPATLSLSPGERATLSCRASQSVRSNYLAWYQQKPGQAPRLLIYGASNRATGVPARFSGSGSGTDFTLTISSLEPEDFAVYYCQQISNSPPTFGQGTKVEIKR
Consider B2, for which the “fold, apparent Kd on cells (KinExA) over Kd by surface plasmon resonance on NPRA-Fc” value in assay [2] was around 20 fold.
